Results reported in the nanobody polyreactivity screen of Harvey et al. (2022).

Assay: yeast display, Sf9 membrane polyspecificity reagent, FACS + sequencing; frameworks hold sequencing errors
How it was run: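 Nanobodies from a synthetic yeast display library (Saccharomyces cerevisiae BJ5465), induced 36–48 hours with galactose, were stained 1 hour at 4 °C with 10% biotinylated, detergent-solubilized Sf9 membrane reagent, enriched on streptavidin microbeads, then FACS-sorted. Anti-HA (expression) and streptavidin (reagent binding) fluorescence set low and high (top ~1%) gates. Polyreactivity labels come from the gate of origin. Genes were colony-PCR amplified, MiSeq 2 × 250 sequenced and filtered by CDR length.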

Sequence	polyreactivity (PSR sort gate)
QVQLVDSGGGLVQAGGSLRLSCAASGRTISKYAMGWNRQAPVKERELVAAITGSGGSTHYADSVKGRFTISRDNAKNTVYLQMNSLKPEDSAVYYCAAVPRYQYGYWGQGTQVTVSS	low polyreactivity
QVQLVDSGGGLVQAGGSLRLSCAASGRTSYYNTMGWYRQAPGKERELVAAITGRGDSTYYADSVKGRFTISRDNAKNTVYLQMNSLKPEDTAVYYCAADELHLLYRVSKFVDYNHWGQGTQVTVSS	low polyreactivity
QVQLVDSGGGLVQAGGSLRLSCAASGSIFPSYAIGWYRQAPGKERELVATIGRGGTTNYADSVKGRFTISRDNAKNTVYLQMNSLKPEDTSVYYCNAERIWRYKYGYDYWGQGTQVTVSS	high polyreactivity
QVQLVDSGGGLVQAGGSLRLSCAASGSIFQQYAMGWYRQAPGKESELVAAISWGDGSTYYADSVKGRFPISRDNAKNTVYLQMNSLKPEDTAVYYCNAYASAPLWSLEDDYWGQGTQVTVSS	low polyreactivity
QVQLVDSGGGLVQAGGSLRLSCAASGSIFQYYAMGWYRQAPGKEMELVAAITSVSSTSYADSVKGRFTISRDNAKNTVYLQMNSLKPEDTAVYYCDAAFRRGLLKMDYWGQGTQVTVSS	low polyreactivity
QVQLVDSGGGLVQAGGSLRLSCAASGSIFRGYAMGWYRPAPGKESGLVAAISRDGGSTYYADSVKGRFTISRDNAKNTVYLQMNSLKPEDTAVYYCAADYVAYATYGDGDYWGQGTQVTVSS	high polyreactivity
QVQLVDSGGGLVQAGGSLRLSCAASGSIFRYNAMGWYREAPGKERVLVAAISWNGARTYYADSVKGRFTISRDNAKNTVYLQMNSLKPEDTAVYYCNAGTFTRRRGLDYWGQGTQVTGSS	low polyreactivity
QVQLVDSGGGLVQAGGSLRLSCAASGSIFSAYAMGWYRQAPGKERELVAAITFGGSTYYADSVKGRFTISRDNAKNTVYLQMNSLKPEDTAVYYCNAYYPFVGLYLGHDYWGQGTQVTVSS	low polyreactivity
QVQLVDSGGGLVQAGGSLRLSCAASGSIFVNNTMGWYRQAPGKERELVAAISSSGGSTYYADSVKGRFTISRDNAKNTVYLQMNSLKPEDTAVYYCAAVNGYQYPQYYYNGYDYWGQGTQVTVSS	low polyreactivity
QVQLVDSGGGLVQAGGSLRLSCAASGSIFVTYAMGWSRQAPAKERELVAAITDRGGSTYADSVKGRFTISRDNAKNTVYLQMNSLKPEDTAVYYCAADPDLGDAYDYWGQGTQVTVSS	low polyreactivity
QVQLVDSGGGLVQAGGSLRLSCAASGSSVKTYAMGWYRQAPGKERELVASISYSGDTTYADSVKGRFTISRDNAKNSVYLQMNSLKPEDTAVYYCAAGWYYYYYSYQYWDYDYWGQGTQVTVSS	high polyreactivity
QVQLVDSGGGLVQAGGSLRLSCAASGSTFRGYAMGWYRQSPGKERELVAAITGSAGSTYYADSVKGRFTISRDNAKNTVYLQMNSLKPEDTAVYYCAAATSYRRYYYIYNYWGQGTQVTVSS	high polyreactivity
QVQLVDSGGGLVQAGGSLRLSCAASGSTFRLYAMGWYRQAPGKERELVAAISQRGGSTYYADSVKGRFTISRDNAKNTVYLQKNSLKPEDTAVYYCNTDWYRKWGKPYYYWGQGTQVTVSS	high polyreactivity
QVQLVDSGGGLVQAGGSLRLSCAASGSTFVPNAMGWYRQAPGKERELVASITSDGGTYYADSVKGRFTISRDNAKNTVYLQMNSLKPEDTAVYYCAADDNGVWVISYWWFDYWGQGTQVTVSS	high polyreactivity
QVQLVDSGGGLVQAGGSLRLSCAASGSTLGENAMGWYRQAPGKERELVSAIRQSSGRTYYADSVKGRFTISRDNAKNTVYLQMNSLKPEDTAVYYCANYYWGQGTQVTVST	low polyreactivity
QVQLVDSGGGLVQAGGSLRLSCAASGYIFGDYVMGWYRQAPGKERELVASISSSGDTNYADSVKGRFTISRDNAMNTVYLQMNSLKPEDTAVYYCAAVDWIGRVHGKPWGGDYWGQGTQVTVSS	low polyreactivity
QVQLVDSGGGLVQAGGSLRLSCAASGYTILSYVMGWNRQAPGKERELVAAIRRSGGSTYYADSVKGRFTISRDNAKNTVYLQMNSLKPEDTAVYYCNAPHHRYDWGQGTQVTVSS	high polyreactivity
QVQLVDSGGGLVQAGGSLRLSCAPSGSTFGYNAMGWYRQAPGKERELVAAITWSGGSTYYADSVKGRFTISRDNAKNTVYLQMNSLKPEDTAVYYCAADDWYNSKWHYYSWGQGTQLTVSS	low polyreactivity
QVQLVDSGGGLVQAGGSLRLSCASSGRIFSEYAMGWYRQAPGKERELVAAISRRGGRTYYADSVKGRFTISRDNAKNTVYLQMNSLKPEDTAVYYCAADHGDPGGYDYWGQGTQVTVSS	high polyreactivity
QVQLVDSGGGLVQAGGSLRLSCASSGRIFTKYSMGLYRQAPGKERELVAGISGSGTITYYADSVKGRFTISRDNAKNTVYLQMNSLKPVDSAVYYCNAGRVTNRTPRYDYWGQGTQVSVSS	high polyreactivity
QVQLVDSGGGLVQAGGSLRLSCDASGLIFRYYTMGWYRQAPGKERELVATITKSGSSTYYADSVKGRFTISRDNAKNTVYLQMNSLKPEDTAVYYCAARAYPSSPRGVYAYYYWGQGTQVTVSS	high polyreactivity
QVQLVDSGGGLVQAGGSLRLSCDASGSIFYPYALGCYIQAPGKERELVAAITTSGGSTYYADSVKGRFTISRDNAKNTVYLQMNSLKPEATAVYYCSASYYSDIWPYSVYDLEFYWGQGTQVTVSS	high polyreactivity

Sequence	polyreactivity (PSR sort gate)
QVQLVDSGGGLVQAGGSLRLSCPASGFTFVIYAMGWYRQEPGKESELVAAIRSGGRTYYADSVKGRFTISRDNAKNTVYLQMNSLKPEDTAVYYCAAVPDLKWFGYEYWGQGTQVTVSS	high polyreactivity
QVQLVDSGGGLVQAGGSLRLSCPASGIIIARNTMGWYRQAPGKERELVAAISTRGTTTYYADSVKGRFTISRDNAKNTVYLQMNSLKPEDTAVYSCAAFRVHTDRYNYWGQGTQVTVSS	high polyreactivity
QVQLVDSGGGLVQAGGSLRLSCPASGRIFSWYAMGWYRQAPGKERELVATISSTGGSTYYADSVKGRFTISRDNAKNTVYLQMNSLKAEHTAVYYCNAVVYGIFLYAWYDYWGQGTQVTVSS	low polyreactivity
QVQLVDSGGGLVQAGGSLRLSCPASGSTIAWYDMGWYRQEPGKEREFVAAIDYGGGSTYADSVKGRFTISRDNAKNTVYLQMNSLKPDDTAVYYCNADYWVYLYDYWGQGTLVTVSS	low polyreactivity
QVQLVDSGGGLVQAGGSLRLSCSASGYTFALYSMGWYRQAPGKERELVADINIGGASTYYADSVKGRFTISRDNAKNTVYLQMNSLKPEDTAVYYCAKEYYDGYFPTFDYDYWGQGTQVTVSS	low polyreactivity
QVQLVDSGGGLVQAGGSLSLSCADSGFIFRAYEMGSYRQAPGNERALVAAISGSGGRTYYSDSVNGRFTISRDNAKNTVYLQKNSLKPEDTAVYYGKADFHYSIPGHAFATVYYWGQGTQVTVSS	low polyreactivity
QVQLVDSGGGLVQAGGTLRLSCAASGSTFRYYAMGWYRQAPGKERELVAAISWNGGRTYYADSVKGRFTISRDNAKNTVYLQMNSLKPEDSAVYYCDAVHYVAYYGYDFWGQGTQVTVSS	high polyreactivity
QVQLVDSGGGLVQAGVRLRLSCAASGNIFSAYAMGWYRQAPGKERELVASIDWNGGRTYYADSVKGRFTISRDNAKNTVYLQMNSLKPEDTAVYYCNAGYSYRKYDYLGQGTQVTVSS	high polyreactivity
QVQLVDSGGGLVQAGVSLRISCAASGSTFYANAMGWYRQAPGKERELVATITSSGTSTYYGDSVKGRFTISRDNAKNTFYLQMNSLKPEDIAVYYCAAEYSLLYWEFDYWGQGTQVTVSS	low polyreactivity
QVQLVDSGGGLVQEGGRLRLSCAASGSIYDQYDMGWYRQAPGKERELVAAISNRGGCTYYADSVKGRFTISRDNAKNTVYLQMNSLKPEDTAVYYCAARKYWGYGTRYFYWGQGTQVTVSS	high polyreactivity
QVQLVDSGGGLVQEGGSLRLRCAASGYTFDWYAMGWYRQAPGKERELVAAINSGGGTYYADSVKGRFTISRDNAKNSVYLQMNSLKPEDTAVYYCAKYTYDYWGQGTQVTVSS	low polyreactivity
QVQLVDSGGGLVQEGGSLRLSCAASGRIFWYYDMGWYRQAPGKERELVAAISQRGGSTYYADSVKGRFTISRDNAKNTVYLQMNSLKPEDTAVYYCAKRNPYWATREYWGQGTQVTVSS	high polyreactivity
QVQLVDSGVGLVQAGGRLRLSCAASGRIFPFNAMGWYRQSPGKERELVAAITSSGGRTYYADSVKGRFTISRDNAKNTVYLQMNSLKPVDTAVYYCAATLVRRARSGPMGYWGQGTQVTVSS	high polyreactivity
QVQLVDSRGGLVQAGGSLRLSCAASGNTFGFNAMGWNRQARGKERHLVAAITWSVGRTYYADSVKRRFTISRDHAKNTVYLEMNSLKPEDTAVYYCAKDFEAGDDYFAYDYWGQGTQVTVSS	low polyreactivity
QVQLVDSRGGLVQAGGSLRLSCAASGSTFVNYAMGWYRQAPGKAWELVAAITANGGRTYYADSVKGRFTISRDNAKNTVYLQMNSLKPEDTAVYYCNTESNLYRRRRNYWGQGTQVTVSS	low polyreactivity
QVQLVDSSGGLVQAGGSLSLSCAASGRTFGFYAMGWYIQAPGSERELVASITWRGGRKYYADSEMGSFTISRDNAKNTCYLQMISLKPEDTAVYYCAAAYHPYQGVTGHDGGYDYWGQGTQVTVSS	low polyreactivity
QVQLVDSVGGLVQAGGSLSLSCAASGLIFASNAMGWYRQAPGKERELLATIRRGTSTNYADSVKGRFTISRDNAKNTVYLEMNSLKPEDTAVYYCAADGYTYKFDYWGQGTQVTVSS	low polyreactivity
QVQLVDSWGGLVQAGGSLRLSCAASGRTSRYAMGWYRQAPGKERELVAAITSSGGRTYYADSVKGRFTISRDNAKNTVYLQMNSLKPEDTAVYYCAAGYLLWRTWDYAAGHNYWGQGTQVTVSS	high polyreactivity
QVQLVDTGGGLVQAGGSLRLICAASGLTFSYNAMGWYRQAPGKERELVAAITVSGGRTYYADSVKGRFTISRDNAKNTVYLQMNSLKAEDTAVYYCNADYDEGYYGYLRYDYDYWGQGTQVTVSS	high polyreactivity
QVQLVDTGGGLVQAGGSLRLSCAASGFTFRWYAMGWYRQAPGKERELVAAISWRGGSTYYADSVKGRFTISRDNAKTTVYLQMNSLKPEDTAVYYCAALRYWISLSSYEYWGQGTQVTVSS	high polyreactivity
QVQLVDTGGGLVQAGGSLRLSCAASGSIFHNNSRGWYRQATGKERELVAAIRRSGGSTSYADSVKGRFTISLDNAKNTVYLQMNSLKPEDTAVYYCNKRFVRFSPEYGYWGQGNQVTVSS	low polyreactivity
